The record followed here is patent publication US20090148905A1 (published 2009).

By Kd is commonly meant the concentration at which binding is half-saturated.

Experiment [1] deals with T1, human IL-4 (human, UniProt P05112 25-153).
T1 construct: E. coli-expressed, made and purified at GSK; also called rhIL-4; recombinant E. coli-expressed human IL-4
T1 sequence: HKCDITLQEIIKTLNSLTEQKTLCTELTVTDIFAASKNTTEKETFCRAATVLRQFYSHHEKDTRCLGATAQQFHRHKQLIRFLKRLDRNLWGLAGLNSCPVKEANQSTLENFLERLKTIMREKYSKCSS
In words: Biacore. A general note: Surface plasmon resonance follows binding to a sensor surface in real time, without labels.

The target in experiment [2] is T2, human IL-13 (human, UniProt P35225 35-146).
T2 construct: E. coli-expressed, made and purified at GSK; also called rhIL-13; recombinant E. coli-expressed human IL-13

B1: PascoL-EPKSC-474 (bispecific antibody, human IgG1, kappa)
heavy: not shown
light: DIVLTQSPSSLSASVGDRVTITCKASQSVDYDGDSYMNWYQQKPGKAPKLLIYAASNLESGIPSRFSGSGSGTDFTFTISSLQPEDIATYYCQQSNEDPPTFGQGTKVEIKRTVAAPSVFIFPPSDEQLKSGTASVVCLLNNFYPREAKVQWKVDNALQSGNSQESVTEQDSKDSTYSLSSTLTLSKADYEKHKVYACEVTHQGLSSPVTKSFNRGECEPKSCDKTHTCPPCPGSGVQLLESGGGLVQPGGSLRLSCAASGFTFAWYDMGWVRQAPGKGLEWVSSIDWHGEVTYYADSVKGRFTISRDNSKNTLYLQMNSLRAEDTAVYYCATAEDEPGYDYWGQGTLVTVSS
For the molecule B1, the “fold less potent than Pascolizumab” value in experiment [1] is about 2 fold.

B2: Anti-human IL-13 monoclonal antibody (also known as 586) (antibody, human IgG1, kappa)
heavy: not shown
light: DIVMTQSPLSLPVTPGEPASISCRSSQNIVHINGNTYLEWYLQKPGQSPRLLIYKISDRFSGVPDRFSGSGSGTDFTLKISRVEADDVGIYYCFQGSHVPWTFGQGTKLEIKRTVAAPSVFIFPPSDEQLKSGTASVVCLLNNFYPREAKVQWKVDNALQSGNSQESVTEQDSKDSTYSLSSTLTLSKADYEKHKVYACEVTHQGLSSPVTKSFNRGEC
notes: humanised, human IgG1/kappa; also called Anti-human IL-13 mAb; anti-IL13 mAb
As for B2, the affinity in experiment [2], expressed as Kd, was 300 pM.
